Experimental data taken from doi:10.1101/2025.08.01.668158.
Positions count from the first letter of the chain named.

Assays:
SpDis3L2(D461N)ΔN168 = biological target: T1, SpDis3L2(D461N)ΔN168 (Schizosaccharomyces pombe, UniProt O14040 168-927, D461N); experiment: X-ray crystallography
T1 sequence: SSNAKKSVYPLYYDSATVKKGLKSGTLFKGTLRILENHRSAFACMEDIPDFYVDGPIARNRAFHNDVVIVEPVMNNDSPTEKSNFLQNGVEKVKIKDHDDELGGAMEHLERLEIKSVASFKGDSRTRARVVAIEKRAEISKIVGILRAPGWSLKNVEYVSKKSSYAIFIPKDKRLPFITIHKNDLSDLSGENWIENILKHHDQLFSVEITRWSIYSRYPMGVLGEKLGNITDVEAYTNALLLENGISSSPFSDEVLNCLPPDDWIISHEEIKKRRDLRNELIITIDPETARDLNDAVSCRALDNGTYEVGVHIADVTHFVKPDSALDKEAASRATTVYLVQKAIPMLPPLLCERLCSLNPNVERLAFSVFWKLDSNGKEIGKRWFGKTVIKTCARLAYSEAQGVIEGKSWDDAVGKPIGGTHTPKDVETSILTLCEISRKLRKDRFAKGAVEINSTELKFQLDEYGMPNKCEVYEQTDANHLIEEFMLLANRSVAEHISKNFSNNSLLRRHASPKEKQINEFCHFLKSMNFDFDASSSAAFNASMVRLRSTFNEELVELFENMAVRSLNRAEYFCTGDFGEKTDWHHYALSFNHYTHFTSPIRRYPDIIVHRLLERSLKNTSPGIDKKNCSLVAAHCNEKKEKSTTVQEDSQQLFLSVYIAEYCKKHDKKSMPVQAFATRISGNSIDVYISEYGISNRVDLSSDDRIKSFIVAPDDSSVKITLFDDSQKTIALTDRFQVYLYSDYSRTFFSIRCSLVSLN

SpDis3L2 WT = biological target: T2, SpDis3L2 WT (Schizosaccharomyces pombe, UniProt O14040 1-927); experiment: EMSA
T2 sequence: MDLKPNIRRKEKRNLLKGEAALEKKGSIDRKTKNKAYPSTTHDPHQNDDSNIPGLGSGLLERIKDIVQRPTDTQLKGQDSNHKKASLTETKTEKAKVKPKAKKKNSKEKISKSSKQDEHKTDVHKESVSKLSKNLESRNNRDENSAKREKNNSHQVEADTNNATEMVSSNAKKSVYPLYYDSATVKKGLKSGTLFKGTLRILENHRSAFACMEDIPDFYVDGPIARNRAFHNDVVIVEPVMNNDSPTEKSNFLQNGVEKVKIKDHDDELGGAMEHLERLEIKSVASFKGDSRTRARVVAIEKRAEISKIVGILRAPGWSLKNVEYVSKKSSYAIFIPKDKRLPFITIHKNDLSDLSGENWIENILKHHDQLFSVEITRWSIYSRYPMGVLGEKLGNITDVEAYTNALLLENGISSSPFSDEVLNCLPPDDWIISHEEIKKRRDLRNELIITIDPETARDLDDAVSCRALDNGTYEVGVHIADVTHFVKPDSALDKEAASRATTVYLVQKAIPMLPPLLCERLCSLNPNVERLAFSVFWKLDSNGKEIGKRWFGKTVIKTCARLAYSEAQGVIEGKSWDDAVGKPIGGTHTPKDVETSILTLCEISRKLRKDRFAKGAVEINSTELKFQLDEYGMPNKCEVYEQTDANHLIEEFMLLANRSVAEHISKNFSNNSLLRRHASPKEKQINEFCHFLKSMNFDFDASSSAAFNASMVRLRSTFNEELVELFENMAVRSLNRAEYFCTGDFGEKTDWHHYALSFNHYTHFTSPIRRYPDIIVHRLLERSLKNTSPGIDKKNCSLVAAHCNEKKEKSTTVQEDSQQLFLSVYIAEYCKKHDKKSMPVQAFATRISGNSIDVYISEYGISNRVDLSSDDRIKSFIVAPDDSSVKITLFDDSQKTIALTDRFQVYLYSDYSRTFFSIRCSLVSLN

SpDis3L2 A756R = biological target: T3, SpDis3L2 A756R (Schizosaccharomyces pombe, UniProt O14040 1-927, A756R); experiment: EMSA
T3 sequence: T2 sequence with A756R

## UUUUUUUUUUUUU (ssRNA) [U13]
SpDis3L2(D461N)ΔN168
  binding result: binds

## GUUUUGUAUAGAAAUCAAUGUUUUUUUUUUUUUUUU (ssRNA) [Adh1-U16]
SpDis3L2 WT
  binding result: binds
SpDis3L2 A756R
  binding result: binds
